According to US20150241442A1:

Molecular target: Leukocyte Function Antigen-1 (LFA-1), on cells (Jurkat T cells, human T cells, PBMC) (human) (UniProt P20701)
Assay: cell-based or functional assay

Chain of Leukocyte Function Antigen-1 (LFA-1), on cells (Jurkat T cells, human T cells, PBMC) (human) (P20701 26-1170, chain 1 of 2): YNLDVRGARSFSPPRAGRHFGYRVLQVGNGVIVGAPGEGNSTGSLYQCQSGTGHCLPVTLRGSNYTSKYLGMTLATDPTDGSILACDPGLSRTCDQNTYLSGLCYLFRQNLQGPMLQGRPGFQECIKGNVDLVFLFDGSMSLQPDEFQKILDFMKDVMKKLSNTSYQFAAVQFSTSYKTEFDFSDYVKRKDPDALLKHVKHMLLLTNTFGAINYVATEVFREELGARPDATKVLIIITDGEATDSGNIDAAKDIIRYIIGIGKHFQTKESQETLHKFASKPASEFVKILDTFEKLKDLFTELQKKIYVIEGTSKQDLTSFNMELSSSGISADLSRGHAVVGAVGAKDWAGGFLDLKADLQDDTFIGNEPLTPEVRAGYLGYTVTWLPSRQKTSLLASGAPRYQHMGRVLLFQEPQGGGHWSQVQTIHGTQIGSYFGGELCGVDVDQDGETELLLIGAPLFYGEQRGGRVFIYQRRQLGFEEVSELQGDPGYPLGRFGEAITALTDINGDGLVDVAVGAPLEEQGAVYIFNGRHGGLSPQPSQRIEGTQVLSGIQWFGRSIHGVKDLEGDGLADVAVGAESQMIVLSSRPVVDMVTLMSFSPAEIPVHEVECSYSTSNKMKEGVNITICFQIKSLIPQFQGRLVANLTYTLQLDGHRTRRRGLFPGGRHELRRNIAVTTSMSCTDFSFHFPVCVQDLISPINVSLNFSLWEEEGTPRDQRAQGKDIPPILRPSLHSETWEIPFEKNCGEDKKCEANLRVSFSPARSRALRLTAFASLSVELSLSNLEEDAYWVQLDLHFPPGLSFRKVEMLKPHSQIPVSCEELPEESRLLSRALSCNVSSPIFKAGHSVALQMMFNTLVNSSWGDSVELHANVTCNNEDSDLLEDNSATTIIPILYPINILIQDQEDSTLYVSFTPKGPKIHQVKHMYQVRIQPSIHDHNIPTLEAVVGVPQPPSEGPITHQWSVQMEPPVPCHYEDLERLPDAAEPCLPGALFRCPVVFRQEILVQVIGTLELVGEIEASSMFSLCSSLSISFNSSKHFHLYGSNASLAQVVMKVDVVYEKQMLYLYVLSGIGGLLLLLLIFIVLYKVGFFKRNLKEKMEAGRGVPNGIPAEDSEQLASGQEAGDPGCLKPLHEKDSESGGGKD
Chain of Leukocyte Function Antigen-1 (LFA-1), on cells (Jurkat T cells, human T cells, PBMC) (human) (P05107 23-769, chain 2 of 2, further chain): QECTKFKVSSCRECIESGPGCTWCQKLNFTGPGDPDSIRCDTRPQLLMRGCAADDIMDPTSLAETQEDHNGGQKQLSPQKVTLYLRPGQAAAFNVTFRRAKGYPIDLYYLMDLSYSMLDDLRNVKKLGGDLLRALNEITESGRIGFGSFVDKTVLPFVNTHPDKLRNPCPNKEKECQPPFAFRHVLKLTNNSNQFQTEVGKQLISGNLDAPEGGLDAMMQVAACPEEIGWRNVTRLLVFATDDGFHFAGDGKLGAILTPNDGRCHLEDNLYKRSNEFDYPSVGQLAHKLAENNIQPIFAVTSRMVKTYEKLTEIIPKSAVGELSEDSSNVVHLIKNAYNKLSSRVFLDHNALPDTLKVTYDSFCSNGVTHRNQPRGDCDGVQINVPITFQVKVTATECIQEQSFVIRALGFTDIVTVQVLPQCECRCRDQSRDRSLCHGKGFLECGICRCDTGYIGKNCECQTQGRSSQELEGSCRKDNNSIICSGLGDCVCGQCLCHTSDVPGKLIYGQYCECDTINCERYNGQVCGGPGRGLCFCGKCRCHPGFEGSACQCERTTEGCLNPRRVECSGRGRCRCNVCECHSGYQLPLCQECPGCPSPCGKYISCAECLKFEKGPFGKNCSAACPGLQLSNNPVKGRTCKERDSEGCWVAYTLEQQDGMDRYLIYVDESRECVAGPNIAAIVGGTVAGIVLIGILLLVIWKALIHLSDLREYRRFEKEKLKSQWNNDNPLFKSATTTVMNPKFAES

B1: recombinant human ICAM3-FC (Fc fusion, UniProt P32942 30-485, looked up, not shown: a dimerising Fc or GST)
chain: QEFLLRVEPQNPVLSAGGSLFVNCSTDCPSSEKIALETSLSKELVASGMGWAAFNLSNVTGNSRILCSVYCNGSQITGSSNITVYRLPERVELAPLPPWQPVGQNFTLRCQVEDGSPRTSLTVVLLRWEEELSRQPAVEEPAEVTATVLASRDDHGAPFSCRTELDMQPQGLGLFVNTSAPRQLRTFVLPVTPPRLVAPRFLEVETSWPVDCTLDGLFPASEAQVYLALGDQMLNATVMNHGDTLTATATATARADQEGAREIVCNVTLGGERREARENLTVFSFLGPIVNLSEPTAHEGSTVTVSCMAGARVQVTLDGVPAAAPGQPAQLQLNATESDDGRSFFCSATLEVDGEFLHRNSSVQLRVLYGPKIDRATCPQHLKWKDKTRHVLQCQARGNPYPELRCLKEGSSREVPVGIPFFVNVTHNGTYQCQASSSRGKYTLVVVMDIEAGSSH
In the case of B1, the frequency of the perforin negative population, CD56+CD8med cells is reported as 19.8% and the granzyme-A negative population, CD56+CD8high cells is reported as 3.07%.

B2: recombinant human ICAM2-FC (Fc fusion, UniProt P13598 25-223, looked up, not shown: a dimerising Fc or GST)
chain: KVFEVHVRPKKLAVEPKGSLEVNCSTTCNQPEVGGLETSLDKILLDEQAQWKHYLVSNISHDTVLQCHFTCSGKQESMNSNVSVYQPPRQVILTLQPTLVAVGKSFTIECRVPTVEPLDSLTLFLFRGNETLHYETFGKAAPAPQEATATFNSTADREDGHRNFSCLAVLDLMSRGGNIFHKHSAPKMLEIYEPVSDSQ
For B2, the frequency of the perforin negative population, CD56+CD8med cells was 21.5% and the granzyme-A negative population, CD56+CD8high cells was 58.3%.
